Assay results reported in patent US20220332804A1 (CSL INNOVATION, published 2022).

How the values were obtained:
Test in all cases: SPR, KD relative to WT C2;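 also: biacore SPR at 37 °C, anti-C2 mAbs captured via immobilised goat anti-human IgG, C2 alanine or serine surface mutants as analytes, 1:1 model fitted, double-referenced sensograms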
human C2 V722A = target: T1, human C2 V722A (human, UniProt P06681 21-752)
T1 sequence: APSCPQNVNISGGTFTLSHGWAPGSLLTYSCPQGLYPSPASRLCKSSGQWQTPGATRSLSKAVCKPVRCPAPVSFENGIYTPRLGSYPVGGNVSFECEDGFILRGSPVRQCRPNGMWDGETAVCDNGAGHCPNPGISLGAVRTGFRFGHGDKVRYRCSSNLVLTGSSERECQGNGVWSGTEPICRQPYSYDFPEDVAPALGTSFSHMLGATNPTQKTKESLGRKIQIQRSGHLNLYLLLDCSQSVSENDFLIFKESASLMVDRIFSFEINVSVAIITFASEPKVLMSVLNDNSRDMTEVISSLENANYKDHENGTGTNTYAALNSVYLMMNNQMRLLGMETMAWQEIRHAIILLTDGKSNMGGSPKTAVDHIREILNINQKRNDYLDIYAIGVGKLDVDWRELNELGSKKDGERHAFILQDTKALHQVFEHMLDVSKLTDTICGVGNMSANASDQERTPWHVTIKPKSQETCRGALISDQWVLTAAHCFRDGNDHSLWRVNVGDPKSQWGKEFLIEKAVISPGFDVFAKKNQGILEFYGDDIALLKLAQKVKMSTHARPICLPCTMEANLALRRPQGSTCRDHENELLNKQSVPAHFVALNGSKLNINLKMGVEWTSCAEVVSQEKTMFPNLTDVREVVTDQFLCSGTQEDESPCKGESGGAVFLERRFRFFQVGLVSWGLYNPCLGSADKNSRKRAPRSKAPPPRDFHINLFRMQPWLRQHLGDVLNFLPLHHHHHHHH

human C2 P704A = target: T2, human C2 P704A (human, UniProt P06681 21-752)
T2 sequence: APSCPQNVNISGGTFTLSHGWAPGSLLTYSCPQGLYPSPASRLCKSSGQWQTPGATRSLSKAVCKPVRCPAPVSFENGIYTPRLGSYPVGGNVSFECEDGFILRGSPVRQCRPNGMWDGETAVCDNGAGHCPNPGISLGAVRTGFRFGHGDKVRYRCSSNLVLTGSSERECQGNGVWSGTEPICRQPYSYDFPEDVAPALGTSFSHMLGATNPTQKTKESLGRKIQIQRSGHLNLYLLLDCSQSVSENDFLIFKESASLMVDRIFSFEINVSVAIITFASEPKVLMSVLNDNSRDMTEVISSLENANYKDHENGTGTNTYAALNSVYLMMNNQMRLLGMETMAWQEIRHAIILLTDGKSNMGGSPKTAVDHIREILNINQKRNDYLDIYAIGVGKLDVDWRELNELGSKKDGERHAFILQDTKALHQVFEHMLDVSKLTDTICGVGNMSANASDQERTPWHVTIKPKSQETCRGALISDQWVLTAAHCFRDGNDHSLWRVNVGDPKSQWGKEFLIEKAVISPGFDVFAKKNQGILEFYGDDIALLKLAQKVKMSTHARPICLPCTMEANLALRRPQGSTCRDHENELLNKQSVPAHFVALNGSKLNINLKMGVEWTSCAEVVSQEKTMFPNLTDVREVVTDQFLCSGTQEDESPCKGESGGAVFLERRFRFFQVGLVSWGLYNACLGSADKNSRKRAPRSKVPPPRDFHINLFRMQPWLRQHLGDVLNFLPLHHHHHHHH

human C2 E324A = target: T3, human C2 E324A (human, UniProt P06681 21-752)
T3 sequence: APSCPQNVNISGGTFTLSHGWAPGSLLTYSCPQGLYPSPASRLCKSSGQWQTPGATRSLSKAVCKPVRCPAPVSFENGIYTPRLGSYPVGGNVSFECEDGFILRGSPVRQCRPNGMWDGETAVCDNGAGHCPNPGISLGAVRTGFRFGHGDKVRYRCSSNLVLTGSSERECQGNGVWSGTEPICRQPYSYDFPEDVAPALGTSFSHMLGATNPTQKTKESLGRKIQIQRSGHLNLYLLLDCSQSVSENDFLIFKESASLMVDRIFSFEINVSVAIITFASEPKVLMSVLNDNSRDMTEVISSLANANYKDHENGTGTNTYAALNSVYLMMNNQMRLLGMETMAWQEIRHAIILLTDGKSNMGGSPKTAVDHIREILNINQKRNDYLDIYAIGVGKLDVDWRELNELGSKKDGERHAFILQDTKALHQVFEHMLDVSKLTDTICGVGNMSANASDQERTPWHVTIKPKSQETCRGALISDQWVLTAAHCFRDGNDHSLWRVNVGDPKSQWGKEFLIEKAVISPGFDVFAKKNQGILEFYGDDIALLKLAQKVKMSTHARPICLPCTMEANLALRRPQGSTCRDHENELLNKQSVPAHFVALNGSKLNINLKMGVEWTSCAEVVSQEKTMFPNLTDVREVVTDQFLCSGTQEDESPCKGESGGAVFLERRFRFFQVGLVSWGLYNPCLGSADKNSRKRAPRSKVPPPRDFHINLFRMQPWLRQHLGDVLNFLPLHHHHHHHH

human C2 P650A = target: T4, human C2 P650A (human, UniProt P06681 21-752)
T4 sequence: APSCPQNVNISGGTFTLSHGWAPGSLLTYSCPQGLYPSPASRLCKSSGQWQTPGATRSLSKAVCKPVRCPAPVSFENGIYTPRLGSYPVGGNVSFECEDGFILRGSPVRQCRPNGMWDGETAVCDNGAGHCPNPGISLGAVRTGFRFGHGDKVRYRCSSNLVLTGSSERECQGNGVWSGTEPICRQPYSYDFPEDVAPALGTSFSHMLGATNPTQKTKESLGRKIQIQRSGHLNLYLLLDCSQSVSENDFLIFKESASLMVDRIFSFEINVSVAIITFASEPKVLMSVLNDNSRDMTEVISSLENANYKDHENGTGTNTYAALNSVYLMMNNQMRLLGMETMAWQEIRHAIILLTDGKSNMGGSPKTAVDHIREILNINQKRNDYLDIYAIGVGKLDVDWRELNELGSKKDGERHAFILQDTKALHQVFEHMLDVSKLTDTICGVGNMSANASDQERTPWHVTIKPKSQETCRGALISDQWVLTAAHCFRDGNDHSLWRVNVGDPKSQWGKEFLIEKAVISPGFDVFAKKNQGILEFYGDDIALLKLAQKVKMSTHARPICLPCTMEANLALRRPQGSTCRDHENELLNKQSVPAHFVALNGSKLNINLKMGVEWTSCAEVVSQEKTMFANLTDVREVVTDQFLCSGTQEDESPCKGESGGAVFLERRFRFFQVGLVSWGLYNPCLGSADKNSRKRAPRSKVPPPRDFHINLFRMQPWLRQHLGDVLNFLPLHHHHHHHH

B1: RF16-226 (antibody, human IgG4 S228P, lambda)
heavy: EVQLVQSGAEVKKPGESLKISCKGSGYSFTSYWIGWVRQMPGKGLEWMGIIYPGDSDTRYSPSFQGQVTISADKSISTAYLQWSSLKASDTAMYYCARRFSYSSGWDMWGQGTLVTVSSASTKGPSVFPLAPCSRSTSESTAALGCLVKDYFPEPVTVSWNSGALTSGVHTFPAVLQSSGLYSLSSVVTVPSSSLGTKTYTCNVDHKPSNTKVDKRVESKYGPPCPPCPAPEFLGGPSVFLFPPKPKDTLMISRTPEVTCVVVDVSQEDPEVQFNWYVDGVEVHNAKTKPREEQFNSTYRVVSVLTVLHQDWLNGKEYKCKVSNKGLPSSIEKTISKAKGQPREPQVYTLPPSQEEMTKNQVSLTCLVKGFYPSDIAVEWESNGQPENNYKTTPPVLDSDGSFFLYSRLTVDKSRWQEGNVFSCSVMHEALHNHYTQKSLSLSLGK
light: SYELTQPPSVSVSPGQTARITCSGDALTSKYVAWYQQKSGLAPLLVIYEDTRRPSGIPAKFSGSSSGSVATLTISGAHGDDEADYYCYSTDASGHQRVFGGGTKLTVLSQPKAAPSVTLFPPSSEELQANKATLVCLISDFYPGAVTVAWKADGSPVKAGVETTKPSKQSNNKYAASSYLSLTPEQWKSHRSYSCQVTHEGSTVEKTVAPTECS
notes: pH-dependent anti-C2 antibody from a phage display library; also called WT
Work on B1 yielded a Fold diff (human C2 V722A) of 10 fold, a Fold diff (human C2 P704A) of 12 fold and a Fold diff (human C2 E324A) of 1 fold. It also gave a Fold diff (human C2 P650A) of 2 fold.
